Reference: the supplement of paper PMC10567573

B1: EPB41L3 (parent)
chain: KKFLTLGSKFRYSGRTQAQTRRAS
B2: DFFB (parent)
chain: KLNCDPSRIYKPQTRLKRKQPVRK

Variants of: B1
Experiment: protein stability index of a GFP-peptide fusion (GPS, HEK-293T) (PSI 1-6); higher = more stable
Conditions: c terminus: a fixed tail appended
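Further: lentivirally expressed fusions sorted by FACS into six bins by GFP to DsRed ratio, PSI derived from sequencing read proportions per bin multiplied by bin number.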

Protein stability index of substitutions, site by site:
Q19: A 2.68 | T 2.61 | R 3.03 | F 2.1 | H 2.52 | E 2.69 | Y 2.22 | S 2.45 | I 2.37 | D 1.2 | W 2.58 | P 3.19 | C 2.77 | N 3.41
T20: D 2.33 | H 2.91 | P 2.81 | I 3.28 | L 2.06 | V 3.28 | C 3.77 | A 2.64 | K 3.2 | G 1.9 | R 3.47 | N 2.62 | S 3.56 | M 2.32 | Y 2.69 | F 2.28
S24: T 3.46 | Y 2.66 | R 3.68 | K 3.64 | C 2.1 | P 2.57 | F 2.36 | G 2.65 | V 2.15 | D 3.31 | N 2.83 | I 2.5 | W 2.57 | M 2.5 | L 2 | H 2.25 | Q 2.51
Q17: L 2.77 | H 3.25 | S 2.01 | M 2.77 | K 2.11 | R 2.95 | N 2.01 | I 2.57 | E 2.76 | F 1.76 | T 2.38 | V 2.24 | D 2.95 | A 2.32 | Y 2.12 | G 2.63 | C 2.94
A18: T 3.1 | K 2.61 | M 2.77 | E 3.23 | H 2.49 | N 3.55 | P 2.92 | Y 3.11 | S 3.19 | Q 2.73 | L 2.44 | F 2.44 | V 2.84 | I 2.91
R15: Q 3.3 | C 2.66 | P 2.58 | V 2.93 | H 3.12 | S 2.53 | T 3.4 | L 2.64 | D 3.81 | F 2.19 | N 2.77 | I 2.19 | W 2.05 | Y 2.16 | G 2.33 | K 2.85 | M 2.49 | E 2.89
A23: H 3 | T 2.92 | S 2.96 | Q 3.27 | R 4.08 | I 3.4 | Y 2.13 | M 2.49 | E 3.21 | D 2.53 | W 3.26 | N 2.85 | G 3.69 | C 2.24 | P 2.5 | K 3.81 | L 3.66
T16: L 2.52 | S 3.36 | G 2.54 | R 3.13 | C 2.2 | Q 2.94 | N 3.28 | M 2.99 | D 2.87 | F 2.94 | Y 3.72 | K 3.02 | E 3.38 | I 2.83 | W 1.84 | H 2.93 | A 2.53 | V 2.74
R21: A 1.96 | M 1.86 | E 2.2 | W 2.85 | V 3.27 | L 1.61 | F 1.98 | I 2.16 | N 2.1 | D 2.69 | Y 2.48 | T 2.24 | K 3.75 | S 3.24
R22: E 2.72 | K 3.1 | D 2.24 | Y 2.13 | A 2.08 | P 2.52 | I 2.02 | M 1.75 | Q 2.44 | S 2.7 | N 1.87 | W 1.41 | F 2.05 | V 2.64 | L 2.19 | T 3.24

Variants of: B2
Experiment: as above
Conditions: c terminus: a fixed tail appended

Protein stability index, by site and new letter:
P6: H 3.39 | W 3.08 | I 3.11 | V 2.89 | A 3.45 | N 3.79 | R 3.7 | M 3.16 | Q 3.62 | G 3.44 | L 3.12 | F 2.92 | T 3.56 | C 3.22 | Y 3.5 | D 4.05 | S 3.71 | E 4.13 | K 4.03
I9: N 4.01 | F 3.83 | Y 3.32 | M 3.3 | Q 3.9 | S 2.51 | E 3.93 | C 4.01 | T 3.31 | D 4.04 | R 2.91 | W 2.82 | V 3.52 | G 3.47 | K 3.84 | L 3.81 | A 3.57 | H 3.31
R8: K 4 | M 3.23 | A 3.84 | H 3.61 | T 2.81 | Y 2.77 | Q 3.57 | S 3.2 | C 3.63 | W 3.29 | F 3.55 | D 3.63 | E 4.21 | V 2.94 | P 3.58 | G 3.83 | I 2.93 | L 2.9 | N 3.38
S7: H 3.21 | N 3.55 | A 3.28 | T 3.46 | R 2.98 | G 3.5 | W 3.78 | V 3.21 | P 3.19 | K 3.21 | D 3.36 | C 3.52 | I 3.41 | M 3.07 | Q 3.87 | Y 2.73 | E 3.53 | F 3.34 | L 3.73
C4: G 2.77 | S 3.66 | P 4.03 | A 3.75 | E 3.65 | I 2.73 | Q 3.78 | D 3.88 | M 2.35 | Y 3.51 | L 3.24 | V 4.06 | T 3.62 | F 3.5 | N 3.74 | R 4.12 | H 3.5 | K 3.58 | W 3.56
D5: N 3.96 | F 3.08 | C 4.16 | E 2.9 | Y 3.75 | T 2.92 | G 3.35 | V 2.98 | W 2.71 | K 3.8 | P 3.25 | A 3.46 | H 3.48 | I 2.74 | S 3.35 | M 2.71 | Q 3.32 | R 3.34 | L 3.06
N3: Y 3.29 | E 4.44 | S 4.17 | M 3.19 | I 2.89 | L 3.06 | D 4.07 | Q 3.53 | R 4.24 | G 4.4 | A 4.21 | V 3.96 | W 3.21 | F 3.03 | K 4.07 | T 3.96 | C 3.73 | P 3.97 | H 3.75
Y10: C 3.62 | A 2.92 | D 3.55
L2: N 4.5 | G 4.94 | A 4.27 | Q 4.16 | K 2.28 | H 2.95 | T 4.12 | E 4.52 | M 4.09 | I 3.2 | R 4.01 | P 4.57 | F 3.96 | D 4.89 | S 4.16 | W 2.73 | C 3.55 | V 4.01 | Y 3.55
K1: F 2.63 | A 4.14 | I 2.06 | E 3.42 | W 3.65 | S 2.92 | Y 3.24 | G 3.13 | C 3.2 | Q 3.37 | H 1.93 | R 4.11 | N 3.47 | P 3.54 | M 2.65 | D 4.23 | V 3.57 | T 3.87 | L 3.8
